In publication PMC8724787 one finds Kd data, which are given here for 2 molecules.

The target of this assay is DENV1 strain Hawaii envelope (E) protein on virions (Dengue virus 1 (strain Hawaii)). Put plainly: ELISA; apparent. For orientation: ELISA stands for enzyme-linked immunosorbent assay.

Like-named read-outs stand apart in the source and are kept apart here.

B1: C10 intact bivalent IgG1 (human monoclonal antibody EDE1 C10) (protein)
chain 1: EVQLVESGAEVKKPGASVKVSCKASGYTFTSYAMHWVRQAPGQRLEWMGWINAGNGNTKYSQKFQDRVTITRDTSASTAYMELSSLRSEDTAIYYCARDKVDDYGDYWFPTLWYFDYWGQGTLVTVSS
chain 2: QSALTQPASVSGSPGQSITISCTGTSSDVGGFNYVSWFQQHPGKAPKLMLYDVTSRPSGVSSRFSGSKSGNTASLTISGLQAEDEADYYCSSHTSRGTWVFGGGTKLTVL
Consider B1, for which the Kd is 2.6 nM.

B2: C10 monovalent antigen binding fragment (Fab) (protein)
chain 1: B1 chain 1
chain 2: B1 chain 2
On to B2, for which the Kd (Fab) came out at 9.85 nM.
